For five molecules, Kd, binding result and binding signal results are on record in PMC3230689.

The target of series [1] is T1, FUS (FLAGHA-FUS-His6) (human, UniProt P35637 1-526). In words: EMSA.
For series [2], the target named is T1, FUS (FLAGHA-FUS-His6). In words: EMSA. This is another data set of the same source. On the technique in general: A gel shift assay detects complexes by their altered migration in electrophoresis.

Bounds are passed on as bounds.

T1 sequence (P35637 whole entry): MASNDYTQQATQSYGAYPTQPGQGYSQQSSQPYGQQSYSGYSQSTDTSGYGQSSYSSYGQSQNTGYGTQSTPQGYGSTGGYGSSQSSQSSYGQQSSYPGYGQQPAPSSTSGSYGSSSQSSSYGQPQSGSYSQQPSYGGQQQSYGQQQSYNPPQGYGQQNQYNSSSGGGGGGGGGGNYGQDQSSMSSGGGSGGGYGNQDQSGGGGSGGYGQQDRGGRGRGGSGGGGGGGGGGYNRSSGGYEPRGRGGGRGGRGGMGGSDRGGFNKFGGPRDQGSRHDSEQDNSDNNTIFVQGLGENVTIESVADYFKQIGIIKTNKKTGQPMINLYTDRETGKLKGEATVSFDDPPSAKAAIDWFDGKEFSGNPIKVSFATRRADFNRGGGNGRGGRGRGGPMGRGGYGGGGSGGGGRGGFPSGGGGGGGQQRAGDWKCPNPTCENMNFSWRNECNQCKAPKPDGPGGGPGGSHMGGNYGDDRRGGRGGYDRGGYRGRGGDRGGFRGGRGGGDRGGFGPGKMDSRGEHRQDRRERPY

What is called Kd is the free concentration of one partner at which half of the binding sites on the other are occupied at equilibrium, for simple one-to-one binding. Higher therefore signals weaker binding. Molecule AUUAUUAUUAUUAUUAUUAUUAUUAUUAUUAUUAUU (structured_RNA) [AUU trinucleotide repeat (x12)] yielded a dissociation constant Kd with FUS (FLAGHA-FUS-His6) [1] of 198 nM. Take GAUUUAUCUUUAACUACUCAAGAUACUGAACAUGACA (structured_RNA) [SON_AB (natural left-right stem)]: in the series with FUS (FLAGHA-FUS-His6) [1], binding was put at a Kd of 148 nM. For GAUUAAGAUAUAACUACUCAAGAUACUGAACAUGACA (ssRNA) [SON_BB (non-complementary right-right stem)], the binding result with FUS (FLAGHA-FUS-His6) [1] was “no binding”. For the molecule GAUUAAGAUAUAACUACUCUAUCUUCUGAACAUGACA (structured_RNA) [SON_BA (reconstituted right-left stem)], the binding result in the series with FUS (FLAGHA-FUS-His6) [1] is reported as “binds”.

As for GGUGGUGGUGGUGGUGGUGGUGGUGGUGGUGGUGGU (ssRNA) [GGU trinucleotide repeat (x12)], the binding signal with FUS (FLAGHA-FUS-His6) [2] was > 15 fold lower Kd than SON_AB (at least; as worded in text).
